# T1: acyl CoA:cholesterol acyl transferase (Mus musculus, UniProt Q61263)
# T1 construct: host or cells: J774 mouse macrophages, cholesterol-loaded
# T1 sequence (Q61263 1-540): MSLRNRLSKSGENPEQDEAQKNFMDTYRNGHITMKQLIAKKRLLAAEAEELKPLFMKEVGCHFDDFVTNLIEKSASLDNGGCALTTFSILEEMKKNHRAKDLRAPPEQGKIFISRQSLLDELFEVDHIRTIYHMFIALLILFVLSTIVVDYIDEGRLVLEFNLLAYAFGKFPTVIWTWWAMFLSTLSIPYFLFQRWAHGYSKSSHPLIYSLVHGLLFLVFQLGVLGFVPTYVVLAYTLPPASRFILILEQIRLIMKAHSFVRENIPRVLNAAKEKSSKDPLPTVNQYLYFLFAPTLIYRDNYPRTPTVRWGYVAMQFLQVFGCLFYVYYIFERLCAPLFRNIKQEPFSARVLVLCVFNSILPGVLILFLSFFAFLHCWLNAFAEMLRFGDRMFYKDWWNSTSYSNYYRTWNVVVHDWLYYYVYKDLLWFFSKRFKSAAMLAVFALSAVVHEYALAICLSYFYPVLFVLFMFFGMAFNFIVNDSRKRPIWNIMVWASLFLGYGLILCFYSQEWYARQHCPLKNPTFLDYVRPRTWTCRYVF
# B1: GFFSFVHEAFQGAGDMWRAYTDMKEANWKNSDKYFHARGNYDAAQRGPGGVWAAEKISD GREAFQEFFGRGHEDTIADQEANRHGRSGKDPNYYRPPGLPDKY (protein, listed as Mus musculis)
# chain: GFFSFVHEAFQGAGDMWRAYTDMKEANWKNSDKYFHARGNYDAAQRGPGGVWAAEKISDGREAFQEFFGRGHEDTIADQEANRHGRSGKDPNYYRPPGLPDKY
# notes: full length murine serum amyloid A isoform 2.1 purified from acute phase plasma
# Columns and labels:
# J774 macrophages = test: Cholesterol efflux from cholesterol-laden J774 macrophages to apolipoprotein liposomes with 8-bromo-cAMP or methyl-β-cyclodextrin; format: cell-based, mouse
# Source text: The export process of cholesterol is coupled to the ATP binding cassette transporter (ABCA1) pathway. Lipid efflux to apolipoproteins has been shown previously to be stimulated by treatment of murine macrophages with cAMP analogues (Lin et al. 2002 Biochem Biophys Res. Commun. 290:663-669; Oram et al. 2000 J. Biol. Chem. 275:34508-34511). Also, the expression of ABCA1 is induced by cAMP treatment (Lin et al. 2002 Biochem Biophys Res. Commun. 290:663-669; Oram et al. 2000 J. Biol. Chem. 275:34508-34511). The inventors herein examined the effect of 8-bromo-cAMP (0.3 mM) on cholesterol efflux by liposomes containing various apolipoproteins when incubated with cholesterol-laden J774 macrophages. Such cells were pre-labeled with [^3H]-cholesterol in the presence of Sandoz 58-035, an ACAT inhibitor, to ensure that all of the radiolabeled cholesterol released from the cells was derived from the un-esterified cholesterol pool, and the cells were treated for 12 hours with 8-bromo-cAMP. This was followed by incubation with various acceptors. The fractional release of cellular labeled cholesterol was determined as a function of time.
# To investigate whether an apolipoprotein free cholesterol acceptor such as cyclodextrin has the ability to catalyze the removal of cholesterol from macrophages, cholesterol-loaded and labeled J774 cells were incubated with liposomes and methyl-β-cyclodextrin (0.1 mM) (CD).
# To examine whether cholesterol export from J774 cells to medium containing liposomes containing 2 μM murine apoA-1, SAA1.1 or SAA2.1 is a cAMP-dependent process, the radio-labeled cholesterol-laden cells were incubated overnight with 8-Br-cAMP (0.3 mM), prior to the addition of liposomes containing 2 μM murine apoA-1, SAA1.1 or SAA2.1 to the culture medium. Cholesterol efflux to the medium was then determined at the indicated time points as described above. Efflux of radioactive label to the medium was calculated as a percentage of total counts in each well.
# [1] = target: T1, acyl CoA:cholesterol acyl transferase; test: ACAT activity in macrophage post-nuclear homogenates; format: biochemical, murine; conditions: macrophage post-nuclear homogenates as enzyme source
# Source text: The in vitro effects of acute phase-HDL (AP-HDL;HDL-SAA) on acyl CoA:cholesterol acyl transferase and cholesterol ester hydrolase activities and on cellular cholesterol export were studied by the inventors using purified enzymes, cell homogenates, and whole cells. […] In contrast, murine SAA1.1 and apoA-1 had no effect. […] Using macrophages preloaded with radio-labeled cholesterol and injected intravenously into either inflamed or un-inflamed mice, it was shown that the inflamed mice, which have high SAA2.1 levels, effluxed cholesterol more rapidly and to a greater extent (6-fold greater) than their un-inflamed counterparts.
# [2] = target: T1, acyl CoA:cholesterol acyl transferase; conditions: intact murine macrophages and post-nuclear homogenates; Ely et al. 2001; cited from earlier work
# [3] = system: hepatic, macrophage, and pancreatic cholesterol esterase; conditions: Lindhorst 1997; Ely 2001; Tam 2002; cited from earlier work
molecule,measurement,setting,value
B1,increase in the initial rate of cholesterol efflux to liposomes after cAMP pre-treatment versus untreated cells,"J774 macrophages; 8-bromo-cAMP 0.3 mM, 12 hours, Sandoz 58-035 present",62.1%
same,further increase in cholesterol efflux by cAMP pre-treatment,J774 macrophages; cells exposed to liposomes and CD,45.5%
same,increase in the initial rate of cholesterol efflux with CD treatment,J774 macrophages; methyl-β-cyclodextrin 0.1 mM plus liposomes,4 fold
same,acyl CoA:cholesterol acyl transferase activity,[1],inhibit acyl CoA:cholesterol acyl transferase activity in a dose-dependent manner
same,macrophage ACAT activity,[2],inhibit macrophage acyl CoA:cholesterol acyl transferase (ACAT) activity
same,cholesterol esterase activities in vitro,[3],"stimulate hepatic, macrophage, and pancreatic cholesterol esterase activities in vitro"
